Measured values reported in patent US8932558B2, “Multi-subunit biological complexes for treatment of plaque-associated diseases” (Plaxgen Inc, priority 2007, dated 2015).

Key:
[1] = test system: iron loaded abeta42 aggregates mixed with CE proteins; assay: Proteolysis of amyloid plaque complexes assembled on iron loaded abeta42 aggregates; format: biochemical; settings: 20 ng protease, 37° C., 1 hr
Procedure: This example illustrates the use of the invention to evaluate the proteolytic degradation of the amyloid complexes. For example, iron loaded abeta42 aggregates are mixed with CE proteins, and the resulting template complexes are treated with five different serine proteases. More specifically, nine independent reactions are carried out with each containing 5.0 μg of the iron-loaded aggregates of abeta42 and 6.0 μg of the CE proteins. After incubation and washing, the complexes are suspended in 50 μl of PBS. The nine complexes are sub-divided into two groups, with six individual complexes comprising Group I and three complexes comprising Group II. In order to interrogate the role of the plasminogen (PLG) activation system, which is implicated in the catabolism of amyloid peptides as well as the pathobiology of amyloid diseases (Melchor J P et al, 2003; Van Nostrand W E et al, 1999; Kranenburg O, 2005), the Group II complexes are subjected to another cycle of binding with both PLG (0.5 μg) and BSA (0.5 μg) proteins. After binding and washing, the PLG and BSA bound plaques complexes are suspended in 50 μl of PBS.
For proteolysis analysis, five of the six Group I template complexes are incubated with 20 ng of each protease (plasnin, chymotrypsin, trypsin, proteinase K and urokinase). The remaining complex is used as a control without protease treatment. […]

[2] = target: iron-loaded abeta42 templates (Homo sapiens, UniProt P05067); assay: Binding of proteins to iron-loaded abeta42 templates; settings: SDS-PAGE
Text: FIG. 46 illustrates an example involving the identification of proteins that bind to iron-loaded abeta42 templates. The iron-loaded abeta42 templates are combined with known and unknown cell extracts (CE) and subjected to CPA, as described herein. To determine which proteins successfully bind the templates, the final template complexes are suspended in denaturing sample buffer, boiled, and loaded into SDS-PAGE gel. The gels are then stained with coomassie blue or silver stain in order to visualize the binding proteins. […] In the negative control, no significant binding is observed when the proteins are incubated in the absence of the templates.
In experiments such as these, known and unknown cell extract proteins that are used for the complex formation with the aggregates are diluted in PBS to a 1 mg/ml concentration and stored at −70° C. as 50 μl aliquots. These samples are thawed on ice and centrifuged (13000 rpm, 15 min, 4° C.) to remove any precipitation. The supernatant containing soluble proteins is used to form complexes with the aggregates. Various proteins are screened against the iron loaded abeta42 aggregates for examining their binding. […] The proteins in the gels are detected using coomassie blue or silver stain (Owl silver stain, Pierce, Ill., USA). […]

[3] = test system: iron loaded prion or abeta40 templates; format: binding

Chain of iron-loaded abeta42 templates (P05067 672-713 limits assumed): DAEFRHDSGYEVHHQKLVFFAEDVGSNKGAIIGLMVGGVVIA

B1: proteinase K: serine protease (protein, UniProt P06873 106-384, looked up)
Proteinase K: AAQTNAPWGLARISSTSPGTSTYYYDESAGQGSCVYVIDTGIEASHPEFEGRAQMVKTYYYSSRDGNGHGTHCAGTVGSRTYGVAKKTQLFGVKVLDDNGSGQYSTIIAGMDFVASDKNNRNCPKGVVASLSLGGGYSSSVNSAAARLQSSGVMVAVAAGNNNADARNYSPASEPSVCTVGASDRYDRRSSFSNYGSVLDIFGPGTSILSTWIGGSTRSISGTSMATPHVAGLAAYLMTLGKTTAASACRYIADTANKGDLSNIPFGTVNLLAYNNYQA
Degradation of proteins bound to the aggregates [1]: degraded

B2: chicken ovalbumin: chicken ovalbumin (protein, UniProt P01012 2-386, looked up)
Ovalbumin: GSIGAASMEFCFDVFKELKVHHANENIFYCPIAIMSALAMVYLGAKDSTRTQINKVVRFDKLPGFGDSIEAQCGTSVNVHSSLRDILNQITKPNDVYSFSLASRLYAEERYPILPEYLQCVKELYRGGLEPINFQTAADQARELINSWVESQTNGIIRNVLQPSSVDSQTAMVLVNAIVFKGLWEKAFKDEDTQAMPFRVTEQESKPVQMMYQIGLFRVASMASEKMKILELPFASGTMSMLVLLPDEVSGLEQLESIINFEKLTEWTSSNVMEERKIKVYLPRMKMEEKYNLTSVLMAMGITDVFSSSANLSGISSAESLKISQAVHAAHAEINEAGREVVGSAEAGVDAASVSEEFRADHPFLFCIKHIATNAVLFFGRCVSP
Binding with iron-loaded abeta42 templates [2]: no detectable binding

B3: plasmin: serine protease (protein, UniProt P00747 20-580; P00747 581-810, looked up)
Plasmin heavy chain A: EPLDDYVNTQGASLFSVTKKQLGAGSIEECAAKCEEDEEFTCRAFQYHSKEQQCVIMAENRKSSIIIRMRDVVLFEKKVYLSECKTGNGKNYRGTMSKTKNGITCQKWSSTSPHRPRFSPATHPSEGLEENYCRNPDNDPQGPWCYTTDPEKRYDYCDILECEEECMHCSGENYDGKISKTMSGLECQAWDSQSPHAHGYIPSKFPNKNLKKNYCRNPDRELRPWCFTTDPNKRWELCDIPRCTTPPPSSGPTYQCLKGTGENYRGNVAVTVSGHTCQHWSAQTPHTHNRTPENFPCKNLDENYCRNPDGKRAPWCHTTNSQVRWEYCKIPSCDSSPVSTEQLAPTAPPELTPVVQDCYHGDGQSYRGTSSTTTTGKKCQSWSSMTPHRHQKTPENYPNAGLTMNYCRNPDADKGPWCFTTDPSVRWEYCNLKKCSGTEASVVAPPPVVLLPDVETPSEEDCMFGNGKGYRGKRATTVTGTPCQDWAAQEPHRHSIFTPETNPRAGLEKNYCRNPDGDVGGPWCYTTNPRKLYDYCDVPQCAAPSFDCGKPQVEPKKCPGR
Plasmin light chain B: VVGGCVAHPHSWPWQVSLRTRFGMHFCGGTLISPEWVLTAAHCLEKSPRPSSYKVILGAHQEVNLEPHVQEIEVSRLFLEPTRKDIALLKLSSPAVITDKVIPACLPSPNYVVADRTECFITGWGETQGTFGAGLLKEAQLPVIENKVCNRYEFLNGRVQSTELCAGHLAGGTDSCQGDSGGPLVCFEKDKYILQGVTSWGLGCARPNKPGVYVRVSRFVTWIEGVMRNN
modifications: Plasmin
notes: serine protease
Degradation of proteins bound to the aggregates [1]: degraded

B4: STI: soybean trypsin inhibitor (protein, UniProt P01070 25-205, looked up)
Trypsin inhibitor A: DFVLDNEGNPLENGGTYYILSDITAFGGIRAAPTGNERCPLTVVQSRNELDKGIGTIISSPYRIRFIAEGHPLSLKFDSFAVIMLCVGIPTEWSVVEDLPEGPAVKIGENKDAMDGWFRLERVSDDEFNNYKLVFCPQQAEDDKCGDIGISIDHDDGTRRLVVSKNKPLVVQFQKLDKESL
Binding with iron loaded prion or abeta40 templates [3]: no detectable binding
